Assay [1] has as its target T1, annexin A1 (human, UniProt P04083 2-346).
T1 construct: on protein array; also called ANXA1
T1 sequence: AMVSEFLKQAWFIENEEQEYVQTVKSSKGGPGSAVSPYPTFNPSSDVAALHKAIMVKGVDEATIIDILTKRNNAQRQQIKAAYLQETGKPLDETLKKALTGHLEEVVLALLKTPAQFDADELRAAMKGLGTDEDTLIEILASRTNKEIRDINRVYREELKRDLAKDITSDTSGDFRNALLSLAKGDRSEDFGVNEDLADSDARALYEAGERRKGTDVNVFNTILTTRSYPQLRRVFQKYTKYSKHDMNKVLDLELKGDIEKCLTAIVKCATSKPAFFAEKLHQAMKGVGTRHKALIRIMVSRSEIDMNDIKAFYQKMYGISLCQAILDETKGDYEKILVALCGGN
Put plainly: protein array, with experimental replicate.

Assay [2] addresses T2, FMR1 autosomal homolog 2 (human, UniProt P51116 1-673).
T2 construct: on protein array; also called FXR2
In words: protein array.

In assay [3] the target is T3, Killer cell lectin like receptor g2 (human, UniProt A4D1S0 1-409).
T3 construct: on protein array; also called KLRG2
T3 sequence: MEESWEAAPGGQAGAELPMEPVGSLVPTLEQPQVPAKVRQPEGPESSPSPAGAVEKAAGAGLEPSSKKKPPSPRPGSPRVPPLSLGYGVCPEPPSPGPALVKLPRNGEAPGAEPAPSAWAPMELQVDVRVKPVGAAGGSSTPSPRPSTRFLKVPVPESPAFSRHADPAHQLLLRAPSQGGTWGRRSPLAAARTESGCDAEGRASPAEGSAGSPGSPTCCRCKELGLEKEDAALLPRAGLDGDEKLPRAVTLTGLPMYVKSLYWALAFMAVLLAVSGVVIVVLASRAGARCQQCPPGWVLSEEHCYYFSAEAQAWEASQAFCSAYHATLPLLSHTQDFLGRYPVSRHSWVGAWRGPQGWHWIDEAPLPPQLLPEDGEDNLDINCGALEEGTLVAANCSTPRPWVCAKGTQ
In words: protein array.

The target in assay [4] is T4, tripartite motif containing 35, transcript variant 1 (human, UniProt Q9UPQ4 1-493, limits assumed).
T4 construct: on protein array; also called TRIM35
T4 sequence: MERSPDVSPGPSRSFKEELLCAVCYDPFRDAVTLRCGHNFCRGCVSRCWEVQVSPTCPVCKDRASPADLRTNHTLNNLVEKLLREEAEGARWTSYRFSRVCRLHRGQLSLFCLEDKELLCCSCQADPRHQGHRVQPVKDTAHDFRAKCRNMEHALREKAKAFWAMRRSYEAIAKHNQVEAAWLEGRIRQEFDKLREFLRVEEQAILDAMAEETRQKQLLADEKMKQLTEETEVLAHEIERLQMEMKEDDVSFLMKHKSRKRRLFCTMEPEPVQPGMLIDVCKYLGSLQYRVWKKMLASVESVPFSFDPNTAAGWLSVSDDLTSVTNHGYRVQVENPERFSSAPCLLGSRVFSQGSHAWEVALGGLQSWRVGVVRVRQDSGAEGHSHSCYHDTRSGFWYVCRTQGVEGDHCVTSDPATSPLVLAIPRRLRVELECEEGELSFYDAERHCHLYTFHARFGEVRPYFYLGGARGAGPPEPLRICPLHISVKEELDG
In words: protein array.

Assay [5] has as its target T5, DIX domain containing 1, transcript variant 2 (human, UniProt Q155Q3 220-683).
T5 construct: also called DIXDC1
T5 sequence: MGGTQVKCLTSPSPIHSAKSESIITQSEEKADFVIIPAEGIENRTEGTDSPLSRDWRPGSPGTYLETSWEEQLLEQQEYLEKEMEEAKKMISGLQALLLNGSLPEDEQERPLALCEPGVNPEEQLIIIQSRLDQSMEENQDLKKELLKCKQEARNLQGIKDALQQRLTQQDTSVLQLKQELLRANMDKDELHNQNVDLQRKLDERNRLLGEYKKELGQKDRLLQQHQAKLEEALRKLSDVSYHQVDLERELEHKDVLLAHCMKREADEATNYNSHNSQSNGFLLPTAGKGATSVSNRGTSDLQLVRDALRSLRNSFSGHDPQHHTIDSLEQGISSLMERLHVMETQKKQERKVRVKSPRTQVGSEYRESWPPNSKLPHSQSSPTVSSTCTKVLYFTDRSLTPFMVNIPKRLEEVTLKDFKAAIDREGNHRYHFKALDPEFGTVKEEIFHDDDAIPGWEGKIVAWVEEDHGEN

In assay [6] the target is T6, methyltransferase like 21C (human, UniProt Q5VZV1 1-264).
T6 construct: on protein array; also called METTL21C
Put plainly: protein array.

The target of assay [7] is T7, family with sequence similarity 177 member A1, transcript variant 2 (human, UniProt Q8N128 1-213).
T7 construct: on protein array; also called FAM177A1
T7 sequence: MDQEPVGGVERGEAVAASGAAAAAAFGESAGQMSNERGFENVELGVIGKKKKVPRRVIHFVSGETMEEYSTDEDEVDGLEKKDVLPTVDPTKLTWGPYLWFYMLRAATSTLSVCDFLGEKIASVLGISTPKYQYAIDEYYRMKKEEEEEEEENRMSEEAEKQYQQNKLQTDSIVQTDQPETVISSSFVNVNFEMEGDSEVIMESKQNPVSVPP
Put plainly: protein array.

Assay [8] addresses T8, olfactory receptor family 6 subfamily Q member 1 (gene/pseudogene) (human, UniProt Q8NGQ2 1-317).
T8 construct: on protein array; also called OR6Q1
T8 sequence: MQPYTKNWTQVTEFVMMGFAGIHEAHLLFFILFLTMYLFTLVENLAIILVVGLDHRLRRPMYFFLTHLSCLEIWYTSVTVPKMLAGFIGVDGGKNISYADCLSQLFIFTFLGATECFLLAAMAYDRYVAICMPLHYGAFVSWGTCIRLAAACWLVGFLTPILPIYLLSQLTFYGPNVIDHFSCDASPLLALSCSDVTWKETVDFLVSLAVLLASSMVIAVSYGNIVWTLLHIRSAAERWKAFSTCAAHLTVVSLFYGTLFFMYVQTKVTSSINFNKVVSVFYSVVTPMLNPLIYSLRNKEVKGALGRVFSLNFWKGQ
Put plainly: protein array.

In assay [9] the target is T9, Jupiter microtubule associated homolog 2 (human, UniProt Q9H910 1-190).
T9 construct: also called HN1L
T9 sequence: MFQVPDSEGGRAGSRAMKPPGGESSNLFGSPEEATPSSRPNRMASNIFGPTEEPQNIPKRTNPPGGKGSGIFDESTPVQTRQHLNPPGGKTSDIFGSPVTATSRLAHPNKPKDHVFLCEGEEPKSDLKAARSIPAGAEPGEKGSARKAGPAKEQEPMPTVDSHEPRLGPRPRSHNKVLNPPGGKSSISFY

In assay [10] the target is T10, quinoid dihydropteridine reductase, transcript variant 1 (human, UniProt P09417 2-244).
T10 construct: HuProt array protein, full-length recombinant from yeast; also called QDPR
T10 sequence: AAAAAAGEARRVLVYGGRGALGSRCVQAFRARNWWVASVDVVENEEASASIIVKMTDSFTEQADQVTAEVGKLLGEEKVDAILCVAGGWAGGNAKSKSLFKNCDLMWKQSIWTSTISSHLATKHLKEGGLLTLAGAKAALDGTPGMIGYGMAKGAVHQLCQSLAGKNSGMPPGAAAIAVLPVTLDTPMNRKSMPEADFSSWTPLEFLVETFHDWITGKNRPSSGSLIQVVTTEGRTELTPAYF

T2 sequence (P51116 whole entry Q252H): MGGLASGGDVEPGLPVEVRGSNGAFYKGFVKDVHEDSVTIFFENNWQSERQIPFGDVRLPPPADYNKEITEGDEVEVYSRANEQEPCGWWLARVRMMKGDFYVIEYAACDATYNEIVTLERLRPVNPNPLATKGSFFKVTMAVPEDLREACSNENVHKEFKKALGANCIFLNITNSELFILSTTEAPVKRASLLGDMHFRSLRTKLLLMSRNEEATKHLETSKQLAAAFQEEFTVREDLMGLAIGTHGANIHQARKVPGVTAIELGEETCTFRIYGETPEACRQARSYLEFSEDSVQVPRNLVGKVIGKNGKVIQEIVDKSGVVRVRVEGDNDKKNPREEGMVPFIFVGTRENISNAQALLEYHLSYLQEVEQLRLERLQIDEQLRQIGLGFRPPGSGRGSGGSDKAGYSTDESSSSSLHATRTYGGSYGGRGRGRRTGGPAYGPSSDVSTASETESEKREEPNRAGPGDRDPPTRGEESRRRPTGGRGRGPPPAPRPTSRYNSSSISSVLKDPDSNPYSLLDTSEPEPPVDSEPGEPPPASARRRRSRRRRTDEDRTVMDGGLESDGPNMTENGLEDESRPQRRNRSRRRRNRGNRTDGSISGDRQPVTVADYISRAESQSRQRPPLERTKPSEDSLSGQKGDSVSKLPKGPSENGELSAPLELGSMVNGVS
T6 sequence (Q5VZV1 whole entry): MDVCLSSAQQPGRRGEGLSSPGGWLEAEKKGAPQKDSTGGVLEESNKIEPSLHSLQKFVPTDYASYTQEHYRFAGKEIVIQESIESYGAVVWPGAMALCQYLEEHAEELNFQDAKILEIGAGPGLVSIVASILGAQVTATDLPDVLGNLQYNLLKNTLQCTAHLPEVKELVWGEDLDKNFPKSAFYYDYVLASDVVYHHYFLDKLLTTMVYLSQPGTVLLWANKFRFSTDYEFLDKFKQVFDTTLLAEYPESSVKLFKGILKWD

B1: TLUA1004 (antibody, V domains shown)
VH: EVQLVESGGGLVQTGGSLRLSCSASGFTFNNYWMHWVRQAPGKGLLWLSRINTDGSRGHYDDSVQGRFTISRDNAKQTVYLQMDGLRAEDTAVYFCARDGYDFRAFDHWGQGVLVTVSS
VL: DIQMTQSPSSLSASVGDKVTMTCRASQFISVYVNWYQQKPGKAPKLLIYTASSLESGVSSRFSGGGSGTDFTLTIRSLQPEDFAIYYCQQTYSTPWTFGPGTRVEIKR
notes: VH/VL tied via antigen in summary, not by name in this stretch
Consider B1, for which, in assay [1], the binding result is “binds”.

B2: TLUA1001 (antibody, V domains shown)
VH: PLQLQESGPGLVKPSETLSLTCSVSGGSIRSSAPFWGWIRQPPGKGLEWIGNIYYNGDTSYSPSLENRVTLFVDTSKNQFSLNLTSVTAADTAVYYCGRIMTPSIDLWGQGKLVTVSS
VL: EIVLTQSPGTLSLSPGERATLSCRASQSISSTYLVWYQQKPGQAPRLLIYAASYRATGIPDRFSGSGSGTDFILTISRLEPEDFAVYYCQQYGSSLTFGGGTKVEIKR
notes: as for B1
B2: the binding result in [2], in [3] and in assay [4] was “binds” in each case.

B3: TTES1010 (antibody, V domains shown)
VH: EVQLVESGGGLVQPGGSLRLSCAASGFTFSSYSMNWVRQAPGKGLEWVSYISSSSSTIYYADSVKGRFTISRDNAKNSLYLQMNSLRAEDTAVYYCASLLGGDPDYWGQGTLVTVSS
VL: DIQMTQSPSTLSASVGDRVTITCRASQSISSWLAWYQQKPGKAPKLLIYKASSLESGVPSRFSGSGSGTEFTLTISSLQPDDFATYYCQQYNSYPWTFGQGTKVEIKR
For the molecule B3, the binding result in assay [5] was “binds”.

B4: TLUS1003 (antibody, V domains shown)
VH: QVHLVQSGSEFKKPGASVKISCKTSGYTFTNYAMNWVRQAPGQGLEWVGWINTVTGIPGYAQGFTGRFIISLDTSGRTSYLQINSLQAEDTAVYYCARSGGFGWSRDLDYWGQGTLVTVSS
VL: DIVLTQSPLSLPVTPGEPASISCRSSQSLLHSNGVYYLDWYLLKPGQSPQLVIYMGSSRASGVPDRFSGSGSGTDFRLKISRVEAEDVGIYYCMQALQTPWTFGQGTKVEIKR
notes: as for B1
For the molecule B4, the binding result in assay [6] is listed as “binds”.

B5: TLUA1016 (antibody, V domains shown)
VH: EVQLLESGGALVQPGGSLRLSCAVSGLTFNRFAMTWVRQAPGKGLEWVSHIGGSGGYTYYADSVKGRFTISRDNSKNTLYLQMNSLRAEDTAVYHCVKLKGIGAMWTYAMDVWGQGTTVTVSS
VL: QSVLTQPPSVSGAPGQRVTIPCTGSSSNLGAGYAVHWYQQLPATTPKLLIYANSSRPSGVPDRFSGSRSDTSASLAITGLQAEDEADYYCQSYDSSLSGYVFGTGTWVTVLS
notes: as for B1
With B5, in [7], the binding result is listed as “binds”.

B6: TBLA1010 (antibody, V domains shown)
VH: EVQLVESGGGLVQPGRSLRLSCAASGFPFGDYAMHWVRQAPGKGLEWVSGIGWDSGGIGYADSVKGRFTISRDIAKNSLYLEINSLRPDDTALYYCAKAAATLPYFRFAMDVWGQGTPVTVSS
VL: EIVLTQSPGTLSLSPGERATLSCRASQSVSSSYLAWYQQKPGQAPRLLIFGASTRASGIPDRFSGRGSGTEFTLTISRLEPEDFAVYYCQQYDSSPFTFGPGTKVEIKR
notes: VH/VL only
For B6, the binding result in assay [8] is on record as “binds”.

B7: TTES1001 (antibody, V domains shown)
VH: PVQLVQSGAEVKKPGSSVQVSCKGSGGTFSEYGISWLRQAPGQGLEWIGGIIPVLGIPNYAQKFRGRVTITADESTGSAYMEVSSLRSEDTAVYYCAREGLRLARGWFHPWGQGTLVTVTS
VL: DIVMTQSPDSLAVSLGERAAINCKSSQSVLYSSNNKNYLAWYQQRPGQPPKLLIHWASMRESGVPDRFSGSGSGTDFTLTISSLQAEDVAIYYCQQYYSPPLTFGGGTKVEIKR
B7: the binding result in [5] is reported as “binds”.

B8: TTES1011 (antibody, V domains shown)
VH: PVTLRESGPALVKPTQTLTLTCTFSGFSLSTSGMCVSWIRQPPGKALEWLARIDWDDDKYYSTSLKTRLTISKDTSKNQVVLTMTNMDPVDTATYYCARMQIVATTQTYYYYYGMDVWGQGTTVTVSS
VL: PAVLTQPPSVSGAPGQRVTISCTGSSSNIGAGYDVHWYQQLPGTAPKLLIYGNSNRPSGVPDRFSGSKSGTSASLAITGLQAEDEADYYCQSYDSSLSGSGVFGGGTKLTVLG
Consider B8, for which, in assay [9], the binding result is given as “binds”.

B9: TMEL1034 (antibody, V domains shown)
VH: QLQLQESGPGLVKPWETLSLSCTVSGGSISSSFFYWGWIRQPPGKGLQWIGNIHYTGSTYYNPSLKSRITMSVDTSKNQFSLKLSSVTAADTAVYYCARHRVGDSPGLHYWGQGTLVTVSS
VL: SYELTQPPSVSVSPGQTARITCSGDALPKKYAFWYQQKSGQAPVLVIYEDSKRPSGIPERFSGSSSGTMATLTISGAQVEDESDYYCYSTDSSGNVWVFGGGTKLTVLG
notes: detected with anti-human IgG Fc
For the molecule B9, the binding result in [10] is reported as “binds”.

B10: TOVA1008 (antibody, V domains shown)
VH: ELQLVESGGGLVQPGGSLRLSCAASGFTFSSYWMSWVRQAPGKGLEWVANINQDGGEKYYVDSVKGRFTISRDNAKNSLYLQMNSLRAEDTAVYYCAHYYYDSSGYYQNAEYFQYWGQGTLVTVSS
VL: DIQMTQSPPSLSASVGDRVTITCQASQDISNYLNWYQQKPGKTPKLLIYAASTLETGVPSRFSGSGSGTDFTFTINSLQPEDIATYYCQQYDSLPLTFGGGTKVEIKR
For the molecule B10, in assay [9], the binding result was “binds”.
